2 molecules from patent publication US20250136710A1 (COMPUGEN, published 2025) can be followed below.

Assay [1] deals with T1, PVRL2 (human, UniProt Q92692 32-360, limits assumed).
T1 construct: also called PVLR2; CD112
T1 sequence (looked up): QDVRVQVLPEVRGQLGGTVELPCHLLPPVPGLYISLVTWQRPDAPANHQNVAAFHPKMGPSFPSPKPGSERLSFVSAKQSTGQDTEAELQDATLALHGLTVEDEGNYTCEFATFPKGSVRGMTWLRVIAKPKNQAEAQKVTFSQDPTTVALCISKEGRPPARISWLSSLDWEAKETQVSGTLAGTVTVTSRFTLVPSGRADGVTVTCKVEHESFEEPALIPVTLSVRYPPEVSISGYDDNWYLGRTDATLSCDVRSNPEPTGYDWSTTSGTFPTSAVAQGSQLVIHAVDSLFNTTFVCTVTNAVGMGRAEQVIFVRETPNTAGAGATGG
The assay is described as follows: not described at this place.

Assay [2] concerns the target T2, PVR (UniProt P15151 21-343, limits assumed).
T2 construct: also called poliovirus receptor; CD155
T2 sequence (looked up): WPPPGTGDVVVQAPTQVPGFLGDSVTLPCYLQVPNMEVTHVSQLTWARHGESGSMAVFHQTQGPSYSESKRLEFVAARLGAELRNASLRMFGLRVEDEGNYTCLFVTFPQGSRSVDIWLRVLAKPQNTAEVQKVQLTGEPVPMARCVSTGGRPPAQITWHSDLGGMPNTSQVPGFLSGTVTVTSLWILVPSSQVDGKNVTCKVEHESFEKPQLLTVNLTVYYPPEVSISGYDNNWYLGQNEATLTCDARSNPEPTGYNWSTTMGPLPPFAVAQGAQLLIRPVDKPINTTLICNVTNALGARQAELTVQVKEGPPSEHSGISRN
As to the kind of experiment: not described at this place.

B1: PVRIG (receptor, human, UniProt Q6DKI7 41-171, looked up)
chain: TPEVWVQVRMEATELSSFTIRCGFLGSGSISLVTVSWGGPNGAGGTTLAVLHPERGIRQWAPARQARWETQSSISLILEGSGASSPCANTTFCCKFASFPEGSWEACGSLPPSSDPGLSAPPTPAPILRAD
notes: also called CD112R; Human Poliovirus Receptor Related Immunoglobulin Domain Containing Protein
In the case of B1, the binding result in assay [1] was “binds”.

B2: TIGIT (receptor, human, UniProt Q495A1 22-141, looked up)
chain: MMTGTIETTGNISAEKGGSIILQCHLSSTTAQVTQVNWEQQDQLLAICNADLGWHISPSFKDRVAPGPGLGLTLQSLTVNDTGEYFCIYHTYPDGTYTGRIFLEVLESSVAEHGARFQIP
notes: also called human TIGIT
Take B2: the binding result in assay [2] is on record as “binds”.
